Experimental data: article PMC10259489, “Identification of epigenetic modulators as determinants of nuclear size and shape” (eLife, 2023)

T1: histone H3R8me2/K9me2 peptide (R8me2, K9me2)
T1 chain: ARTKQTARKSTGGKAPRKQ

T2: GST-lamin A (aa 389–646), entire Ig-fold and C-terminus (human, UniProt P02545 389-646)
T2 construct: pGEX4T1 construct; also called full-length lamin A tail; source: E. coli Rosetta 2, purified (glutathione Sepharose 4B); not shown: GST, N-terminal, kept
T2 sequence (looked up): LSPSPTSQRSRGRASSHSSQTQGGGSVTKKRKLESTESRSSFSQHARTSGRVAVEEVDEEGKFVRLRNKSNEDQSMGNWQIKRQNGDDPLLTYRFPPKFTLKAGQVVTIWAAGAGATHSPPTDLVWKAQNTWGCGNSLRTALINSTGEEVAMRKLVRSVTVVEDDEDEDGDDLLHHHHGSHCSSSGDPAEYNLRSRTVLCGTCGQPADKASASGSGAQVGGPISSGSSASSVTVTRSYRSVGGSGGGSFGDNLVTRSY


Columns and labels:
[1] = target: T1, histone H3R8me2/K9me2 peptide; experiment: peptide or protein array; MODified histone peptide array (Active Motif, 384 peptides spotted); 10 nM purified GST-lamin A (pACS37) in 100 mM KCl, 20 mM HEPES pH 7.5, 1 mM EDTA, 0.1 mM DTT, 10% glycerol, room temperature 1 hr; detected with anti-GST and HRP secondary, ECL; conditions: both partners purified
[2] = target: T2, GST-lamin A (aa 389–646), entire …; experiment: pull-down; calf thymus histone pull-down with GST-lamin A (wild type or C522A) and GST-lamin C (389–572) co-incubated, with or without DTT; conditions: both partners purified

fold signal against H3K9me2 [1] [fold]	binding result [2]	Binder
~5	–	GST-lamin A (506–646) (domain or fragment, human, UniProt P02545 506-646, looked up, detected by anti-GST; also called GST-lamin A (pACS37); source: E. coli Rosetta 2, purified (glutathione Sepharose 4B); not shown: GST, N-terminal, kept) HSPPTDLVWKAQNTWGCGNSLRTALINSTGEEVAMRKLVRSVTVVEDDEDEDGDDLLHHHHGSHCSSSGDPAEYNLRSRTVLCGTCGQPADKASASGSGAQVGGPISSGSSASSVTVTRSYRSVGGSGGGSFGDNLVTRSY
–	binds	GST-lamin C (aa 389–572), C-terminal region of lamin C (domain or fragment, human, UniProt P02545-2 389-572, looked up, pGEX4T1 construct; source: E. coli Rosetta 2, purified (glutathione Sepharose 4B); not shown: GST, N-terminal, kept) LSPSPTSQRSRGRASSHSSQTQGGGSVTKKRKLESTESRSSFSQHARTSGRVAVEEVDEEGKFVRLRNKSNEDQSMGNWQIKRQNGDDPLLTYRFPPKFTLKAGQVVTIWAAGAGATHSPPTDLVWKAQNTWGCGNSLRTALINSTGEEVAMRKLVRSVTVVEDDEDEDGDDLLHHHHVSGSRR
